Data from paper doi:10.1101/2024.09.04.610228 (bioRxiv, 2024).
Ends that are not written are not given here.

Target: FOXO4 forkhead domain (FHD) (95-195) (UniProt P98177 95-195)
Test: fluorescence polarisation

Sequence of FOXO4 forkhead domain (FHD) (95-195) (P98177 95-195): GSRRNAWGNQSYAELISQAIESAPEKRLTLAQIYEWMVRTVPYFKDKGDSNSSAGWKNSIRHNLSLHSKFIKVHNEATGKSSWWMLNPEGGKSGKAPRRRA

Row | Binder | Kd [nM] | fold enhancement of inhibitory ability against p53 TAD PEP [fold]
1 | DLMLSPDDIEQWFTED (also: FITC label, position not given here) [FITC-labeled p53 TAD PEP (42-57)] | 110 | 
2 | ALMLSPAAIAQWFTAA [CAND] |  | ~3
